B1: Mu_02D09_VH (SEQ ID NO: 31)_D31A (antibody, V domains shown)
VH: EVQLVESGGGLVKPGGSLTLSCAASGFTFSAYGMHWLRQAPEKGLEWVAYISSGSRAVFFADTVKGRFTISRDNAKNTLFLQMTSLRSDDTAMYYCARDRYDGRGFAYWGQGTLVTVSA
VL: DIVLTQSPATLSVTPGDSVSLSCRASQSISNNLHWYQQTSHESPRLLITYASQSISGIPSRFSGSGSGTDFTLSINSVETEDFGMYFCQQSNSWPLTFGAGTKLELKR
B2: Mu_02D09_VL (SEQ ID NO: 33)_W94A (antibody, V domains shown)
VH: EVQLVESGGGLVKPGGSLTLSCAASGFTFSDYGMHWLRQAPEKGLEWVAYISSGSRAVFFADTVKGRFTISRDNAKNTLFLQMTSLRSDDTAMYYCARDRYDGRGFAYWGQGTLVTVSA
VL: DIVLTQSPATLSVTPGDSVSLSCRASQSISNNLHWYQQTSHESPRLLITYASQSISGIPSRFSGSGSGTDFTLSINSVETEDFGMYFCQQSNSAPLTFGAGTKLELKR
B3: Mu_02D09_VH (SEQ ID NO: 31)_G33A (antibody, V domains shown)
VH: EVQLVESGGGLVKPGGSLTLSCAASGFTFSDYAMHWLRQAPEKGLEWVAYISSGSRAVFFADTVKGRFTISRDNAKNTLFLQMTSLRSDDTAMYYCARDRYDGRGFAYWGQGTLVTVSA
VL: DIVLTQSPATLSVTPGDSVSLSCRASQSISNNLHWYQQTSHESPRLLITYASQSISGIPSRFSGSGSGTDFTLSINSVETEDFGMYFCQQSNSWPLTFGAGTKLELKR
B4: Mu_02D09_VH (SEQ ID NO: 31)_Y50A (antibody, V domains shown)
VH: EVQLVESGGGLVKPGGSLTLSCAASGFTFSDYGMHWLRQAPEKGLEWVAAISSGSRAVFFADTVKGRFTISRDNAKNTLFLQMTSLRSDDTAMYYCARDRYDGRGFAYWGQGTLVTVSA
VL: DIVLTQSPATLSVTPGDSVSLSCRASQSISNNLHWYQQTSHESPRLLITYASQSISGIPSRFSGSGSGTDFTLSINSVETEDFGMYFCQQSNSWPLTFGAGTKLELKR
B5: Mu_02D09_VL (SEQ ID NO: 33)_L96A (antibody, V domains shown)
VH: EVQLVESGGGLVKPGGSLTLSCAASGFTFSDYGMHWLRQAPEKGLEWVAYISSGSRAVFFADTVKGRFTISRDNAKNTLFLQMTSLRSDDTAMYYCARDRYDGRGFAYWGQGTLVTVSA
VL: DIVLTQSPATLSVTPGDSVSLSCRASQSISNNLHWYQQTSHESPRLLITYASQSISGIPSRFSGSGSGTDFTLSINSVETEDFGMYFCQQSNSWPATFGAGTKLELKR
B6: Mu_02D09_VH (SEQ ID NO: 31)_Y32A (antibody, V domains shown)
VH: EVQLVESGGGLVKPGGSLTLSCAASGFTFSDAGMHWLRQAPEKGLEWVAYISSGSRAVFFADTVKGRFTISRDNAKNTLFLQMTSLRSDDTAMYYCARDRYDGRGFAYWGQGTLVTVSA
VL: DIVLTQSPATLSVTPGDSVSLSCRASQSISNNLHWYQQTSHESPRLLITYASQSISGIPSRFSGSGSGTDFTLSINSVETEDFGMYFCQQSNSWPLTFGAGTKLELKR
B7: Mu_02D09_VH (SEQ ID NO: 31)_D102A (antibody, V domains shown)
VH: EVQLVESGGGLVKPGGSLTLSCAASGFTFSDYGMHWLRQAPEKGLEWVAYISSGSRAVFFADTVKGRFTISRDNAKNTLFLQMTSLRSDDTAMYYCARDRYAGRGFAYWGQGTLVTVSA
VL: DIVLTQSPATLSVTPGDSVSLSCRASQSISNNLHWYQQTSHESPRLLITYASQSISGIPSRFSGSGSGTDFTLSINSVETEDFGMYFCQQSNSWPLTFGAGTKLELKR
B8: Mu_02D09_VH (SEQ ID NO: 31)_H35A (antibody, V domains shown)
VH: EVQLVESGGGLVKPGGSLTLSCAASGFTFSDYGMAWLRQAPEKGLEWVAYISSGSRAVFFADTVKGRFTISRDNAKNTLFLQMTSLRSDDTAMYYCARDRYDGRGFAYWGQGTLVTVSA
VL: DIVLTQSPATLSVTPGDSVSLSCRASQSISNNLHWYQQTSHESPRLLITYASQSISGIPSRFSGSGSGTDFTLSINSVETEDFGMYFCQQSNSWPLTFGAGTKLELKR
B9: Mu_02D09_VH (SEQ ID NO: 31)_S52A (antibody, V domains shown)
VH: EVQLVESGGGLVKPGGSLTLSCAASGFTFSDYGMHWLRQAPEKGLEWVAYIASGSRAVFFADTVKGRFTISRDNAKNTLFLQMTSLRSDDTAMYYCARDRYDGRGFAYWGQGTLVTVSA
VL: DIVLTQSPATLSVTPGDSVSLSCRASQSISNNLHWYQQTSHESPRLLITYASQSISGIPSRFSGSGSGTDFTLSINSVETEDFGMYFCQQSNSWPLTFGAGTKLELKR
B10: Mu_02D09_VH (SEQ ID NO: 31)_D99A (antibody, V domains shown)
VH: EVQLVESGGGLVKPGGSLTLSCAASGFTFSDYGMHWLRQAPEKGLEWVAYISSGSRAVFFADTVKGRFTISRDNAKNTLFLQMTSLRSDDTAMYYCARARYDGRGFAYWGQGTLVTVSA
VL: DIVLTQSPATLSVTPGDSVSLSCRASQSISNNLHWYQQTSHESPRLLITYASQSISGIPSRFSGSGSGTDFTLSINSVETEDFGMYFCQQSNSWPLTFGAGTKLELKR
B11: Mu_02D09_VH (SEQ ID NO: 31)_Y101A (antibody, V domains shown)
VH: EVQLVESGGGLVKPGGSLTLSCAASGFTFSDYGMHWLRQAPEKGLEWVAYISSGSRAVFFADTVKGRFTISRDNAKNTLFLQMTSLRSDDTAMYYCARDRADGRGFAYWGQGTLVTVSA
VL: DIVLTQSPATLSVTPGDSVSLSCRASQSISNNLHWYQQTSHESPRLLITYASQSISGIPSRFSGSGSGTDFTLSINSVETEDFGMYFCQQSNSWPLTFGAGTKLELKR
B12: Mu_02D09_VL (SEQ ID NO: 33)_Q27A (antibody, V domains shown)
VH: EVQLVESGGGLVKPGGSLTLSCAASGFTFSDYGMHWLRQAPEKGLEWVAYISSGSRAVFFADTVKGRFTISRDNAKNTLFLQMTSLRSDDTAMYYCARDRYDGRGFAYWGQGTLVTVSA
VL: DIVLTQSPATLSVTPGDSVSLSCRASASISNNLHWYQQTSHESPRLLITYASQSISGIPSRFSGSGSGTDFTLSINSVETEDFGMYFCQQSNSWPLTFGAGTKLELKR
B13: Mu_02D09_VL (SEQ ID NO: 33)_I29A (antibody, V domains shown)
VH: EVQLVESGGGLVKPGGSLTLSCAASGFTFSDYGMHWLRQAPEKGLEWVAYISSGSRAVFFADTVKGRFTISRDNAKNTLFLQMTSLRSDDTAMYYCARDRYDGRGFAYWGQGTLVTVSA
VL: DIVLTQSPATLSVTPGDSVSLSCRASQSASNNLHWYQQTSHESPRLLITYASQSISGIPSRFSGSGSGTDFTLSINSVETEDFGMYFCQQSNSWPLTFGAGTKLELKR
B14: Mu_02D09_VH (SEQ ID NO: 31)_D62A (antibody, V domains shown)
VH: EVQLVESGGGLVKPGGSLTLSCAASGFTFSDYGMHWLRQAPEKGLEWVAYISSGSRAVFFAATVKGRFTISRDNAKNTLFLQMTSLRSDDTAMYYCARDRYDGRGFAYWGQGTLVTVSA
VL: DIVLTQSPATLSVTPGDSVSLSCRASQSISNNLHWYQQTSHESPRLLITYASQSISGIPSRFSGSGSGTDFTLSINSVETEDFGMYFCQQSNSWPLTFGAGTKLELKR
B15: Mu_02D09_VH (SEQ ID NO: 31)_R104A (antibody, V domains shown)
VH: EVQLVESGGGLVKPGGSLTLSCAASGFTFSDYGMHWLRQAPEKGLEWVAYISSGSRAVFFADTVKGRFTISRDNAKNTLFLQMTSLRSDDTAMYYCARDRYDGAGFAYWGQGTLVTVSA
VL: DIVLTQSPATLSVTPGDSVSLSCRASQSISNNLHWYQQTSHESPRLLITYASQSISGIPSRFSGSGSGTDFTLSINSVETEDFGMYFCQQSNSWPLTFGAGTKLELKR
B16: Mu_02D09_VL (SEQ ID NO: 33)_S56A (antibody, V domains shown)
VH: EVQLVESGGGLVKPGGSLTLSCAASGFTFSDYGMHWLRQAPEKGLEWVAYISSGSRAVFFADTVKGRFTISRDNAKNTLFLQMTSLRSDDTAMYYCARDRYDGRGFAYWGQGTLVTVSA
VL: DIVLTQSPATLSVTPGDSVSLSCRASQSISNNLHWYQQTSHESPRLLITYASQSIAGIPSRFSGSGSGTDFTLSINSVETEDFGMYFCQQSNSWPLTFGAGTKLELKR
B17: Mu_09E09_VH (SEQ ID NO: 35)_S35A (antibody, V domains shown)
VH: DVKLVESGEGLVKPGGSLKLSCAASGFTFSSYAMAWVRQTPEKRLEWVAYISSGGDYIYYADTVKGRFTISRDNARNTLYLQMSSLKSEDTAMYYCTRDPITGTFAYWGQGTLVTVSA
VL: DLQMTQTTSSLSASLGDRVTISCRASQDINNYLNWYQQKPDGTVKLLIYYTSTLHSGVPSRFSGSGSGTDYSLTISNLEQEDIATYFCQQGNTLPWTFGGGTKLEIKR
B18: Mu_09E09_VH (SEQ ID NO: 35)_Y50A (antibody, V domains shown)
VH: DVKLVESGEGLVKPGGSLKLSCAASGFTFSSYAMSWVRQTPEKRLEWVAAISSGGDYIYYADTVKGRFTISRDNARNTLYLQMSSLKSEDTAMYYCTRDPITGTFAYWGQGTLVTVSA
VL: DLQMTQTTSSLSASLGDRVTISCRASQDINNYLNWYQQKPDGTVKLLIYYTSTLHSGVPSRFSGSGSGTDYSLTISNLEQEDIATYFCQQGNTLPWTFGGGTKLEIKR

biological target: T1, ANTIBODY EXPRESSION CONTROL; assay: SPR Biacore, expression control
T1 construct: also called mouse anti-canine antibody (capture reagent of the expression control ELISA)
Experimental: The affinity with which candidate mAbs bind canine, feline, and human (SEQ ID NO: 122; Human_OSMR) (R&D Systems, Minneapolis, Minn.) OSMR was determined using surface plasmon resonance (SPR) on a Biacore system (Biacore Life Sciences (GE Healthcare), Uppsala, Sweden). To avoid affinity differences associated with differential surface preparation that can occur when immobilizing antibodies to surfaces; OSMR from each species was directly conjugated to individual surfaces. Immobilization was obtained by amine coupling 5 μg/mL OSMR using N-hydroxysuccinimide (NHS)/1-Ethyl-3-(3-dimethylaminopropyl) carbodiimide (EDC) chemistry. Chips were quenched with ethanolamine and the affinity with which all candidate mAbs bound to the immobilized OSMR was evaluated. All curves were fit to a 1:1 model. […] Results for affinity measurements are described herein.
Data from an ELISA represents an equilibrium state where the antibody is allowed to associate and dissociate over a one-hour period resulting in steady-state binding. Using Biacore, the target protein is immobilized to a surface and the antibody is passed over this surface in a mobile liquid phase. Protein-protein interaction is determined from changes in the surface resonance which allows for calculation of association (kₐ), disassociation (kd), and affinity constant (KD). While not wishing to be bound to one hypothesis we present data from ELISA and Biacore experiments, using the same preparation of antibody, that may result in agreement between the two methods with respect to binding but also may show contradictory results due to the nature of the binding kinetics and different assay dynamics. The data presented in Table A (in combination with experimental results from yeast display mutational analysis in Example 21) allow for the definition of a structure:function relationship to be defined between the anti-OSMR antibodies described here and their ability to bind and block IL-31 and OSM-mediated signaling through the OSMR receptor.

| Binder | Kd | koff | kon |
| --- | --- | --- | --- |
| B1 | 0.0685 nM | 8.32e-05 s⁻¹ | 1.21e+06 M⁻¹ s⁻¹ |
| B2 | 0.0977 nM | 3.16e-05 s⁻¹ | 323000 M⁻¹ s⁻¹ |
| B3 | 0.0225 nM | 7.35e-06 s⁻¹ | 327000 M⁻¹ s⁻¹ |
| B4 | 0.00259 nM | 3.68e-07 s⁻¹ | 142000 M⁻¹ s⁻¹ |
| B5 | 0.0659 nM | 2.43e-05 s⁻¹ | 370000 M⁻¹ s⁻¹ |
| B6 | 0.366 nM | 4.43e-05 s⁻¹ | 121000 M⁻¹ s⁻¹ |
| B7 | 0.547 nM | 7.4e-05 s⁻¹ | 135000 M⁻¹ s⁻¹ |
| B8 | 0.803 nM | 0.000112 s⁻¹ | 139000 M⁻¹ s⁻¹ |
| B9 | 0.0233 nM | 7.55e-06 s⁻¹ | 323000 M⁻¹ s⁻¹ |
| B10 | 1.63 nM | 0.000384 s⁻¹ | 235000 M⁻¹ s⁻¹ |
| B11 | 0.28 nM | 4.11e-05 s⁻¹ | 147000 M⁻¹ s⁻¹ |
| B12 | 1.2 nM | 0.00019 s⁻¹ | 158000 M⁻¹ s⁻¹ |
| B13 | 0.714 nM | 9.47e-05 s⁻¹ | 133000 M⁻¹ s⁻¹ |
| B14 | 0.0019 nM | 2.45e-07 s⁻¹ | 129000 M⁻¹ s⁻¹ |
| B15 | 0.229 nM | 2.41e-05 s⁻¹ | 105000 M⁻¹ s⁻¹ |
| B16 | 0.844 nM | 0.000111 s⁻¹ | 132000 M⁻¹ s⁻¹ |
| B17 | 0.18 nM | 5.34e-05 s⁻¹ | 297000 M⁻¹ s⁻¹ |
| B18 | 0.179 nM | 5.4e-05 s⁻¹ | 301000 M⁻¹ s⁻¹ |

Source: patent US20220177594A1 (ZOETIS SERVICES, published 2022)
